Source: US20250215092A1 (ZHEJIANG NANOMAB TECHNOLOGY CENTER, published 2025)
One block for each binder: values may come before it.

Assays:
[1] = target: T1, human EGFR.His antigen (Acro, Cat #EGR-H522a) (human, UniProt P00533 25-645); test: competition ELISA: EGFR his tag protein coated, antibody titrated together with Human EGF-mouse IgG2a Fc, bound EGF detected with HRP anti-mouse IgG, unit taken from the concentration axis (paragraph 62 says nM); OD450 falls only from about 2.4 to about 2.1 [table]
T1 construct: extracellular domain; Bought protein; also called EGFR his tag protein; full-length EGFR extracellular domain protein; not shown: His tag
Method: (§1) Briefly, EGFR his tag protein was diluted with PBS to 2 μg/mL, and 100 μL of the antigen was added to each well of an ELISA plate and coated overnight at 4° C. The next day, the plates were washed twice with PBST (containing 0.5% TWEEN-20), and then blocked with 3% BSA at 37° C. for 1.5 h, followed by two washes with PBST. […] VHH-IgG4 antibodies were diluted to 2000 nM and then serially diluted 4-fold for 8 gradients. […] After washing 3 times, HRP goat anti-mouse IgG (Goat anti-Mouse IgG) (H+L) antibody (Abcam, cat #ab205719) diluted at 1:3000 was added to each well, and the plate was incubated at 37° C. for 40 min. The plates were then washed 3 times with PBST, and 100 μL of TMB substrate was added to each well and allowed to react for 3-5 min. The reaction was stopped by adding 100 μL of 3N hydrochloric acid per well. After stopping the reaction, the optical density at 450/650 nm was measured using a Tecan microplate reader. The dose-response curve was plotted, and the IC50 was calculated using GraphPad Prism 8.0 software.

[2] = target: T2, EGFR on SKOV3 and Aspc-1 tumor cells (human, UniProt P00533); test: flow cytometry on Aspc-1 tumor cells, anti-human IgG PE, MFI, curve fit; unit from the concentration axis and paragraph 62; no upper plateau within the range shown [table]
T2 construct: endogenous, on the cell surface; the cell line is named under assay; also called tumor cell EGFR
Method: (§2) Two kinds of tumor cells, SKOV3 and Aspc-1, expressing EGFR were respectively plated in 96 well plates, with 3×10⁵ cells per well, and then the tumor cells were incubated with gradient diluted VHH-IgG4 antibody. After incubation on ice for half an hour, anti human IgG PE (Jackson Immuno Research, Code: 109-117-008, Lot:145501) was added for incubation, and then CytoFLEX flow cytometry was used for detection. The EC50 of the antibody was calculated by curve fitting.

[3] = target: T1, human EGFR.His antigen (Acro, Cat …); test: competition ELISA: EGFR his tag protein coated, antibody titrated together with Human EGF-mouse IgG2a Fc, bound EGF detected with HRP anti-mouse IgG, unit taken from the concentration axis (paragraph 62 says nM); OD450 falls from about 2.4 to a plateau of about 0.4 [table]
Method: as §1

[4] = target: T3, EGFR-D4 (F481-S645, P00533-1 (uniprot)) his tag antigen (human, UniProt P00533 481-645); test: ELISA: EGFR-D4 his tag antigen coated at 0.5 µg/mL, antibody at 2000, 200, 20, 2 nM, HRP goat anti-human IgG Fc, OD450
T3 construct: range 481-645; also called IV domain protein; EGFR-D4 protein; not shown: His tag
Method: (2) Protein Binding Epitope Analysis: ELISA was used to determine the binding of VHH-IgG4 antibody to each domain of EGFR extracellular protein. Briefly, EGFR his tag protein, and EGFR-V3-his tag antigen protein were diluted to 1 μg/mL, EGFR-D1D2 (L25-A310, P00533-1 (uniprot)), and EGFR-D4 (F481-S645, P00533-1 (uniprot)) his tag antigen were diluted to 0.5 μg/mL, and each well of an ELISA plate was coated with […] antigen and incubated overnight at 4° C. The next day, the plates were washed twice with PBST (added with 0.5% TWEEN-20), then blocked with 3% BSA at 37° C. for 1.5 h, and then washed twice with PBST. Then, the antibody to be tested was diluted to 50 nM, 5 nM, 0.5 nM, 0.05 nM, and added to the wells coated with EGFR his tag protein or EGFR-V3-his tag antigen at 100 µL/well, respectively. The antibody was diluted to 2000 nM, 200 nM, 20 nM, 2 nM, and added to the wells coated with EGFR his tag protein or EGFR-V3-his tag antigen at 100 µL/well, respectively. The ELISA plates were incubated at 37° C. for 1 h. The plates were then washed three times with PBST, and then 100 μL HRP labeled Goat anti human IgG Fc antibody (1:10000, Bethyl) was added into each well, and incubated at 37° C. for another 40 min. After washing the plates four times with PBST, 100 μL of TMB substrate was added to each well, and the reaction was allowed to proceed for 3-5 min. The reaction was stopped by adding 100 μL of 3N hydrochloric acid per well. After stopping the reaction, the optical density at 450/650 nm was measured using a Tecan microplate reader.

[5] = target: T2, EGFR on SKOV3 and Aspc-1 tumor cells; test: flow cytometry on Aspc-1 tumor cells, anti-human IgG PE, MFI, curve fit; unit from the concentration axis and paragraph 62 [table]
Method: as §2

[6] = target: T1, human EGFR.His antigen (Acro, Cat …); test: competition ELISA: EGFR his tag protein coated, antibody titrated together with Human EGF-mouse IgG2a Fc, bound EGF detected with HRP anti-mouse IgG, unit taken from the concentration axis (paragraph 62 says nM); OD450 falls only from about 2.4 to about 2.1-2.2 [table]
Method: as §1

[7] = target: T1, human EGFR.His antigen (Acro, Cat …); test: competition ELISA: EGFR his tag protein coated, antibody titrated together with Human EGF-mouse IgG2a Fc, bound EGF detected with HRP anti-mouse IgG, unit taken from the concentration axis (paragraph 62 says nM); the curve does not fall (OD450 about 2.4 to 2.65), no blocking, so the fit is not meaningful [table]
Method: as §1

[8] = target: T2, EGFR on SKOV3 and Aspc-1 tumor cells; test: flow cytometry on SKOV3 tumor cells, anti-human IgG PE, MFI, curve fit; unit from the concentration axis and paragraph 62; the curve is barely above Isotype 2: MFI about 1800 at about 250 nM, no plateau [table]
Method: as §2

IC50 [1]: 0.084 µg/mL
EC50 [2]: 17 nM
B1: E003 VHH-IgG4 antibody (antibody, V domains shown, not shown: a dimerising Fc or GST)
VH: QVQLVESGGGLVQPGGSLRLSCVASGGVFSSYAMGWYRQVPGKLRELVATITSGHSTTYADIVRGRFTISRDNTKNTVYLQMNRLEPDDTAVYYCNRSPYTPGNWGQGTLVTVSS

IC50 [3]: 0.056 µg/mL
binding result [4]: no binding (tested: 2000 nM)
EC50 [5]: 1.5 nM
B2: E008 VHH-IgG4 antibody (antibody, V domains shown)
VH: EVQVVESGGGLVQSGGSLTLSCTSSGLPLLDYAIGWFRQAPGKEREAVSAISISEGSTYYTDSVRGRFTISRDNNKNKVYLRMDNLKPEDTAVYYCAADKTDIGFWLLVGGAGGGEVRYEYWGQGTQVTVSS
notes: VHH fused to IgG4 (VHH-IgG4), expressed in ExpiCHO, protein A purified; not shown: human IgG4 constant part from the pCDNA3.4-IgG4 vector

binding result [4]: no binding (tested: 2000 nM)
EC50 [5]: 3.7 nM
IC50 [1]: 0.038 µg/mL
B3: E002 VHH-IgG4 antibody (antibody, V domains shown)
VH: QVQLVESGGGLVQAGGSLRLSCAASGFTFSDYAVSWYRQAPGKEREFVARITGTGETSRYEDSVKGRFAISRDNVKNTAYLQMNSLKPEDTAVYYCSIYHPPRDYWGQGTQVTVSS
notes: as for B2

IC50 [6]: 0.033 µg/mL
EC50 [2]: 15 nM
B4: E005 VHH-IgG4 antibody (antibody, V domains shown)
VH: QVQLVESGGGLVQPGGSLRLSCEASGFAFSDYTMRWHRQAAGKELELVAYITSAGDIIKYANSVRGRFTISRDNAKNTLYLQMDSLKPEDTAVYRCNALVSASVRASDYWGQGTLVTVSS
notes: as for B2

EC50 [2]: 39 nM
B5: E007 VHH-IgG4 antibody (antibody, V domains shown, not shown: a dimerising Fc or GST)
VH: EVQLVESGGGLVQPGGSLRLSCEASGFSFSDHTMRWHRQAAGKNLELVAYITPAGDIIKYADSVQGRFTISRDNAKNMLYLQMDSLRPDDTAVYRCNALVSAAVRASDYWGQGTQVTVSS

IC50 [7]: ~22.8 µg/mL
EC50 [8]: 245 nM
B6: E004 VHH-IgG4 antibody (antibody, V domains shown, not shown: a dimerising Fc or GST)
VH: EVQLVESGGGLAQSGGSLRLACEASGFPFETYAMSWARQTPGNEPEWVAGIFPDGKHTAYAHSVKGRFTISRVNANNTVYLQMDSLKPEDTAVYYCAKDLPFFATPSFYIGYWGQGTLVTVSS
